From patent US20030176671A1 (SANFORD BURNHAM MEDICAL RESEARCH INSTITUTE, published 2003) come the findings set out here.

The target in one assay is T1, GFP-Bak (UniProt Q16611 1-211).
T1 construct: also called pEGFP-Bak; not shown: EGFP from a pEGFP vector
T1 sequence (looked up): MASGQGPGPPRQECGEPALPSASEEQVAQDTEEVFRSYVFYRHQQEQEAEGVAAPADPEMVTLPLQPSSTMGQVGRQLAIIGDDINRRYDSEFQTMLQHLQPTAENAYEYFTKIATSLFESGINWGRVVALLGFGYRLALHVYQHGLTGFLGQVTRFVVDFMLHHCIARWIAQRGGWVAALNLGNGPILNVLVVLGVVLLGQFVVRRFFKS
Description: co-immunoprecipitation from transfected 293T cell lysates, immunoblot. For orientation: A western blot detects proteins with antibodies after separation by electrophoresis.

The target of another assay is T2, Bax (UniProt Q07812 1-192, limits assumed).
T2 construct: also called pcDNA3-Bax
Nature of the assay: co-immunoprecipitation with anti-Myc beads from HEK293T lysates, anti-Bax immunoblot (FIG. 4A). The procedure:
293T cells (5×10₆) cultured with 50 uM […]-Val-Ala-Asp-fluoromethylketone (ZVAD-fmk, Bachem) were co-transfected with 1.5 ug of pcDNA3-Myc-Bcl-B, pcl-Neo-Flag-Bcl-B, pcDNA3-hCBP (Human Calcyclin Binding Protein) (used as a control), or pcDNA3-Flag-BCI-XL, together with 1.5 ug of pEGFP, pEGFP-Bcl-B, pcDNA3-HA-BAG1, pcDNA3-HA-Bax, pcDNA3-Flag-Bcl-XL, pRC-CMV-Bcl-2 or pEGFP-Bak. At 24 hrs post-transfection, cells were collected and resuspended in lysis buffer (142.4 mM KCI, 5 mM MgCl₂, 10 MM HEPES (pH 7.4), 0.5 mM EGTA, 0.2% NP-40) containing 12.5 mM p-glycerophosphate, 2 mM NaF, 1 mM Na₃VO₄, 1 mM DTT, 1 mM PMSF and a protease inhibitor mixture (Boehringer Mannheim). Soluble lysates were incubated with 10 ul anti-Myc (Santa Cruz) or anti-Flag (Sigma) antibody conjugated Sepharose beads overnight at 4° C. Beads were washed four times in 1.5 ml lysis buffer, and boiled in Laemmli gel-loading solution before performing SDS-PAGE/immunoblotting. The following polyclonal or monoclonal antibodies were used: polyclonal rabbit anti-GFP (Roche), monoclonal rat anti-HA (Roche), monoclonal mouse anti-Flag (Sigma), monoclonal mouse anti-Myc (Santa Cruz), rabbit anti-huBcl—2, or rabbit anti-huBcl-XL (Krajewski, et al., Am. J. Pathol. 145, 515-525 (1994); Krajewski et al., Cancer Res. 54, 5501-5507 (1994)).
Binding studies confirmed that binding between Bcl-B and Bax mediates suppression of apoptosis by Bax. In brief, HEK293T cells were transiently transfected with several Myc-tagged constructs (human calcyclin-binding protein, wildtype Bcl-B, L86A, R96Q, FFR(169-171)AAA, Δ118-133) and cell lysates were prepared and immunoprecipitated with anti-Myc antibody conjugated to beads. Immunoprecipitates were subjected to SDS-PAGE/immunoblot analysis using rabbit polyclonal antibodies specific for Bax (FIG. 4A). To confirm expression of proteins, lysates were subject to immunoblot analysis using antibodies specific for Bax and Myc.

T2 sequence (Q07812 whole entry): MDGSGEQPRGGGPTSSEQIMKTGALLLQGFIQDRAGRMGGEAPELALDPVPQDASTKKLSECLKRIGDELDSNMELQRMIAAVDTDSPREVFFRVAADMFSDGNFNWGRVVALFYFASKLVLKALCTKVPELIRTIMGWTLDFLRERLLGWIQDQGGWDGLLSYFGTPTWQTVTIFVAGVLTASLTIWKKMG

B1: Myc-Bcl-B (other, not shown: small tags and cut ends)
chain: MVDQLRERTTMADPLRERTELLLADYLGYCAREPGTPEPAPSTPEAAVLRSAAARLRQIHRSFFSAYLGYPGNRFELVALMADSVLSDSPGPTWGRVVTLVTFAGTLLERGPLVTARWKKWGFQPRLKEQEGDVARDCQRLVALLSSRLMGQHRAWLQAQGGWDGFCHFFRTPFPLAFWRKQLVQAFLSCLLTTAFIYLWTRLL
notes: Expressed in 293T cells and immunoprecipitated from lysates; also called wildtype Bcl-B; pcDNA3-Myc-Bcl-B
On to B1, for which, in the assay with GFP-Bak, the binding result is on record as “no binding”.

B2: Myc-Bcl-B L86A (other, not shown: small tags and cut ends)
chain: MVDQLRERTTMADPLRERTELLLADYLGYCAREPGTPEPAPSTPEAAVLRSAAARLRQIHRSFFSAYLGYPGNRFELVALMADSVASDSPGPTWGRVVTLVTFAGTLLERGPLVTARWKKWGFQPRLKEQEGDVARDCQRLVALLSSRLMGQHRAWLQAQGGWDGFCHFFRTPFPLAFWRKQLVQAFLSCLLTTAFIYLWTRLL
notes: Myc-tagged Bcl-B point mutant
B2: the binding result in the assay with Bax is given as “no binding”.

B3: Myc-Bcl-B R96Q (other, not shown: small tags and cut ends)
chain: MVDQLRERTTMADPLRERTELLLADYLGYCAREPGTPEPAPSTPEAAVLRSAAARLRQIHRSFFSAYLGYPGNRFELVALMADSVLSDSPGPTWGQVVTLVTFAGTLLERGPLVTARWKKWGFQPRLKEQEGDVARDCQRLVALLSSRLMGQHRAWLQAQGGWDGFCHFFRTPFPLAFWRKQLVQAFLSCLLTTAFIYLWTRLL
notes: Myc-tagged Bcl-B point mutant
B3: in the assay with Bax, the binding result is reported as “no binding”.

B4: Myc-Bcl-B deletion 118-133 (other, not shown: small tags and cut ends)
chain: MVDQLRERTTMADPLRERTELLLADYLGYCAREPGTPEPAPSTPEAAVLRSAAARLRQIHRSFFSAYLGYPGNRFELVALMADSVLSDSPGPTWGRVVTLVTFAGTLLERGPLVTARVARDCQRLVALLSSRLMGQHRAWLQAQGGWDGFCHFFRTPFPLAFWRKQLVQAFLSCLLTTAFIYLWTRLL
notes: also called (delta)118-133
In the case of B4, the binding result in the assay with Bax is “no binding”.
